Reference: US20220235132A1 (ANAPTYSBIO, published 2022)
Several values for one entry are separate records, joined by “and”; a condition that tells them apart may be missing. Equal entries are not always repeated.

Key:
[1] = biological target: T1, biotinylated cynomolgus monkey PD-1 extracellular domain monomer (cynomolgus monkey, UniProt B0LAJ3 25-170, Biotinylated; neither the site nor the method is stated, and the letters do not carry it.); assay: SPR (Biacore T200), biotinylated PD-1 ECD monomer captured on SA chip
T1 construct: Captured on a streptavidin sensor chip for SPR; also called Cynomolgus PD-1 (SPR)

[2] = biological target: T2, biotinylated human PD-1 extracellular domain monomer (human, UniProt Q15116 25-170, biotinylated (site not stated)); assay: as above
T2 construct: extracellular domain; Captured on a streptavidin sensor chip for SPR; also called Human PD-1 (SPR)

[3] = biological target: T3, human PD-1 expressed on cells (human, UniProt Q15116 25-288); assay: flow cytometry, 2-day anti-CD3/anti-CD28 activated human CD4+ T cells
T3 construct: whole, on cells; Used for all cell-based assays with human PD-1 (transfectants and primary T cells)
Experimental: Primary human peripheral blood CD4⁺ T cells were prepared using magnetic bead separation (CD4⁺ T Cell Isolation Kit, Miltenyi Biotec, Auburn, Calif.) of peripheral blood mononuclear cells (PBMCs) and activated for 48 hours with plastic-coated anti-CD3 and anti-CD28 in 6-well plates. Cells (1×10⁵ per sample) were washed and stained in V-bottom 96-well plates with the indicated concentrations of each antibody for 30 min at 4° C. with gentle shaking, centrifuged and washed once. Cells were fixed in 4% paraformaldehyde in PBS for 10 min at room temperature, washed, and antibodies detected with Alexa Fluor 647-conjugated F(ab′)2 goat anti-human IgG Fc (Jackson ImmunoResearch, West Grove, Pa.) for 10 min at 4° C. Cells were washed, resuspended, and bound antibody fluorescence quantified on a BD FACSArray™ (BD Biosciences, San Jose, Calif.). Data were analyzed for geometric mean fluorescence intensity (MFI) using FlowJo® analysis software (FlowJo, LLC). ECso values were determined in GraphPad Prism 7.02 (GraphPad Software) using a log(agonist) vs. response—Variable slope (4 parameters) curve fit.

[4] = biological target: T4, cynomolgus PD-1 (as used in KinExA) (cynomolgus monkey); assay: KinExA (kinetic exclusion assay)
T4 construct: also called Cynomolgus PD-1 KD (KinExA)

[5] = biological target: T5, cynomolgus monkey PD-1 expressed on cells (cynomolgus monkey, UniProt B0LAJ3 25-288); assay: flow cytometry, HEK 293 cells stably expressing cynomolgus monkey PD-1
T5 construct: also called cynomolgus PD-1; PD-1 on stably transfected HEK 293 cells
Experimental: HEK 293 cells were stably transfected to express either human PD-1 or cynomolgus monkey PD-1. Cells were harvested by Accutase™ treatment (Innovative Cell Technologies, San Diego, Calif.), the cells expressing cynomolgus monkey PD-1 were treated with the lipophilic fluorescent dye Vybrant® DiD (ThermoFisher Scientific, Carlsbad, Calif.), and then mixed with an equal number of unlabeled HEK 293 cells expressing human PD-1. Cells (2×10⁵ total per sample) were stained with the indicated concentrations of each antibody for 40 min at 4° C. with gentle shaking, centrifuged and washed once. Cells were fixed in 2% paraformaldehyde in phosphate-buffered saline (PBS) for 10 min at room temperature, washed, and antibodies detected with Phycoerythrin (PE)-conjugated goat anti-human kappa (Southern Biotechnology, Birmingham, Ala.) for 15 min at 4° C. with gentle shaking. Cells were washed, resuspended, and bound antibody fluorescence quantified on a BD FACSArray™ (BD Biosciences, San Jose, Calif.). Data were analyzed for median fluorescence intensity (MFI) using FlowJo® analysis software (FlowJo, LLC). ECso values were determined in GraphPad Prism 5.0 (GraphPad Software) using a log(agonist) vs. response—Variable slope (4 parameters) curve fit. The results are shown in FIGS. 1 and 2, and the ECso values are set forth in Table 2 (human) and Table 3 (cynomolgus monkey). […]

[6] = biological target: T3, human PD-1 expressed on cells; assay: cell-based or functional assay
[7] = biological target: T1, biotinylated cynomolgus monkey PD-1 …; assay: SPR screening (method taken from paragraph 169), N = 2
Experimental: KD measurements for screening by Surface Plasmon Resonance (SPR) were performed on a Biacore T200 (GE Healthcare Life Sciences, Pittsburgh, Pa.), and kinetic constants were fit globally using a 1:1 binding model. Biotinylated human or cynomolgus monkey PD-1 extracellular domain monomer was captured at a 1 nM concentration on a Biacore Sensor chip SA (GE Healthcare Life Sciences, Pittsburgh, Pa.), with a carboxymethylated dextran surface pre-immobilized with streptavidin. The captured antigen level was targeted to yield a low response to prevent avidity effects on the dissociation rate. Tm measurements were determined by fluorescence-based thermal shift and differential scanning calorimetry.

T1 sequence (B0LAJ3 entry or part of it limits assumed): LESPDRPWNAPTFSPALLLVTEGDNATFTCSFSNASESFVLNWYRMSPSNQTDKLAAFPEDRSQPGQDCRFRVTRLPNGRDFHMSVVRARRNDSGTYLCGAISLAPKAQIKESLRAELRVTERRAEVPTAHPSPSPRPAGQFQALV
T5 sequence (B0LAJ3 entry or part of it limits assumed): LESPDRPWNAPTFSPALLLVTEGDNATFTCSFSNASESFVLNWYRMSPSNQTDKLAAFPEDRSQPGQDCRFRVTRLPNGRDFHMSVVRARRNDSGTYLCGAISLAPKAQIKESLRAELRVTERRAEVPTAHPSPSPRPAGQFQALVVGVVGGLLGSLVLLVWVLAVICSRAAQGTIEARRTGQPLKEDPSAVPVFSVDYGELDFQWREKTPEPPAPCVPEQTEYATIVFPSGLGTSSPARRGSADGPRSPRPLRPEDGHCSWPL
T3 sequence (Q15116 25-288): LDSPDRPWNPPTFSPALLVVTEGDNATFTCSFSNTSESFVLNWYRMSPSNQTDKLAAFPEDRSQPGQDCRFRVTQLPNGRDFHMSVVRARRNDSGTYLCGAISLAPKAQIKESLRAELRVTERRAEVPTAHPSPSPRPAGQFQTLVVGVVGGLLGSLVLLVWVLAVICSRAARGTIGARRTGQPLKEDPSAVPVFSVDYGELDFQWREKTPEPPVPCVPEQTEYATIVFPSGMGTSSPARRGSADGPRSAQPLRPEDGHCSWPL
T2 sequence (Q15116 25-170): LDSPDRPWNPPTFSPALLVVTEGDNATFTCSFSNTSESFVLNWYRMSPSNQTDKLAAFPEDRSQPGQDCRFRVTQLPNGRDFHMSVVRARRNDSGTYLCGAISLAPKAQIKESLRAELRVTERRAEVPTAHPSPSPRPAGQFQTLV

| Binder | Kd [1] [nM] | Kd [4] [nM] | EC50 [5] | Kd [7] [nM] | other results |
| --- | --- | --- | --- | --- | --- |
| APE12043 (437M5-112 anti-PD-1 antibody, ExpiCHO-S transient) (antibody, V domains shown, detected with anti-human kappa; Only variable regions are tied to APE12043; the suffixes .02 to .05 are lots; also called APE12043.02; APE12043.03) VH: QVQLVQSGAEVKKPGASVKVSCKASGYTFTSYSMHWVRQAPGQGLEWMGYINPSSGFTNYIQKFRDRVTMTADKSSSTAYMELSRLRSDDTAVYYCARDYYGRYYYVMDYWGQGTTVTVSS VL: DIQMTQSPSSLSASVGDRVTITCTASSSVSSSFLHWYQQKPGKAPKLLIYSTSDLASGVPSRFSGSGSGTDFTLTISSLQPEDFATYYCHQYHRSPLTFGGGTKVEIKR | 0.09 | 0.21 | 3.69 nM and 2.69 nM and 2.59 nM | – | Kd [2]: 0.031 nM; EC50 [3]: 2.99 nM and 3.06 nM |
| APE12538 (437M5-112 anti-PD-1 antibody, CHO-S sorted stable pool) (antibody, human IgG1, kappa, V domains shown, also called APE12538.01) VH: QVQLVQSGAEVKKPGASVKVSCKASGYTFTSYSMHWVRQAPGQGLEWMGYINPSSGFTNYIQKFRDRVTMTADKSSSTAYMELSRLRSDDTAVYYCARDYYGRYYYVMDYWGQGTTVTVSS VL: DIQMTQSPSSLSASVGDRVTITCTASSSVSSSFLHWYQQKPGKAPKLLIYSTSDLASGVPSRFSGSGSGTDFTLTISSLQPEDFATYYCHQYHRSPLTFGGGTKVEIKR | 0.217 | – | – | – | – |
| APE12890 (3.7C6 anti-PD-1 antibody, CHO-S) (antibody, human IgG1, kappa, V domains shown) VH: QVQLVQSGSELKKPGASVKVSCKASNYTFTDYSMHWVRQAPGQGLEWMGWINIETYYPTYADQFKGRFAFSLDTSVSTAYLQISSLKAEDTAVYYCARDYYGRFYYAMDYWGQGTTVTVSS VL: EIVLTQSPATLSLSPGERATLSCTASSSVSSSYFHWYQQKPGQAPRLLIYSTSNLASGIPARFSGSGSGTDFTLTISRLEPEDFAVYYCHQYHRSPLTFGGGTKVEIKR | – | – | – | – | median IC50 for IFN-γ inhibition, human whole blood tetanus toxoid recall assay [6]: 0.053 nM; median IC50 for IL-17A inhibition, human whole blood tetanus toxoid recall assay [6]: 0.097 nM |
| APE12095 (3.7C6 anti-PD-1 antibody, ExpiCHO-S transient) (antibody, V domains shown, detected with anti-human kappa; Only variable regions are tied to APE12095; suffixes are lots; also called APE12095.03; APE12095.04) VH: QVQLVQSGSELKKPGASVKVSCKASNYTFTDYSMHWVRQAPGQGLEWMGWINIETYYPTYADQFKGRFAFSLDTSVSTAYLQISSLKAEDTAVYYCARDYYGRFYYAMDYWGQGTTVTVSS VL: EIVLTQSPATLSLSPGERATLSCTASSSVSSSYFHWYQQKPGQAPRLLIYSTSNLASGIPARFSGSGSGTDFTLTISRLEPEDFAVYYCHQYHRSPLTFGGGTKVEIKR | 0.244 | 0.45 | 7.99 nM and 6.17 nM and 7.47 nM | – | – |
| APE12537 (3.7C6 anti-PD-1 antibody, CHO-S sorted stable pool) (antibody, human IgG1, kappa, V domains shown, also called APE12537.01) VH: QVQLVQSGSELKKPGASVKVSCKASNYTFTDYSMHWVRQAPGQGLEWMGWINIETYYPTYADQFKGRFAFSLDTSVSTAYLQISSLKAEDTAVYYCARDYYGRFYYAMDYWGQGTTVTVSS VL: EIVLTQSPATLSLSPGERATLSCTASSSVSSSYFHWYQQKPGQAPRLLIYSTSNLASGIPARFSGSGSGTDFTLTISRLEPEDFAVYYCHQYHRSPLTFGGGTKVEIKR | 0.445 | – | – | 0.64 | – |
| 030-13263/030-13264 (CDR-grafted) (antibody, V domains shown, CDR-grafted forerunner of APE12537; APE12537 differs from it by A52aI and D62Q (Kabat) in the heavy chain) VH: QVQLVQSGSELKKPGASVKVSCKASNYTFTDYSMHWVRQAPGQGLEWMGWINAETYYPTYADDFKGRFAFSLDTSVSTAYLQISSLKAEDTAVYYCARDYYGRFYYAMDYWGQGTTVTVSS VL: EIVLTQSPATLSLSPGERATLSCTASSSVSSSYFHWYQQKPGQAPRLLIYSTSNLASGIPARFSGSGSGTDFTLTISRLEPEDFAVYYCHQYHRSPLTFGGGTKVEIKR | – | – | – | 1.02 | – |
